{"source": "patent US20250376709A1", "about": "“PAPB AS A BIMOIETY-DEPENDENT THIOETHER INSTALLATION TOOL” (UNIVERSITY OF UTAH RESEARCH FOUNDATION, priority 2022, published 2025)", "key": {"[1]": {"tested_on": "PapB", "assay": "Enzymatic reactions of msPapA peptides with PapB (thioether crosslinking, U/HPLC-MS readout)", "format": "biochemical", "settings": "for extent of conversion to crosslinked peptide by PapB (in words): incubation with PapB, SAM and reductant, MS isotopic envelope; for substrate conversion: after 300 s; for substrate converted to crosslinked product: assessed from MS isotopic envelope after PapB", "method": "Assays were conducted in a Coy Laboratories anaerobic chamber with 98% N2/2% H2 atmosphere at room temperature. All reactions contained 0.05 M PIPES·NaOH (pH 7.4), 2 mM DTT, 2.4 mM SAM (enzymatically synthesized and purified as previously described (deGruyter, J. N., et al. Biochem. 2017, 56 (30), 3863-3873)), ˜100-400 μM msPapA variants (concentration determined by peptide dry weight or by spectroscopic analysis in the case of Y19W), and […]-10 μM PapB. Either dithionite (dT) or flavodoxin (FldA), flavodoxin reductase (FPR) and NADPH were used to reduce PapB. For the assays that used chemical reductant, the total concentration was 2 mM dT. For the assays that used the biological reducing system, the mixtures contained 25 μM FldA, 2 μM FPR and 2 mM NADPH. The total volume of the reactions ranged from 0.1 mL for initial screenings to 0.5 mL for MS/MS Collision Induced Dissociation (CID) fragmentation experiments described below. Control reactions in the absence of dT, SAM and PapB were also conducted. Reactions were initiated with the addition of PapB and quenched at times ranging from 15 s to 2 h by the addition of 10% of the reaction volume of 30% (w/v) trichloroacetic acid (TCA, ACS grade). The samples were centrifuged at 16,000×g for 10 min in a microcentrifuge to pellet the precipitated PapB.\nThe assays were analyzed using either a Vanquish UHPLC with a diode-array detector connected to a Q-Exactive mass spectrometer or an Ultimate 3000 HPLC with a diode-array detector connected to a LTQ OrbiTrap XL mass spectrometer. Each was operated in positive ion mode, the FT analyzer was set to 100,000 resolution, 1 microscan, and 200 ms maximum injection time. Xcalibur software was used to analyze data. A 20 μL aliquot was injected onto a Hypersil GOLD C18 column (2.1 mm×150 mm, 1.9 μm particle size) (Thermo Fisher) pre-equilibrated in 0.1% (v/v) LC-MS Optima TFA (Fisher in LC-MS Optima water (Fisher). Chromatographic steps were carried out at 0.2 mL/min with buffer A containing 0.1% (v/v) TFA in Optima water and buffer B containing Optima grade acetonitrile with 0.1% (v/v) TFA. The separation consisted of washing with 100% A from 0 to 3 min, followed by a linear gradient from 100% to 0% A from 3 to 6 min, washing with 0% A from 6 to 10 min, and reequilibration with 100% A from 10 to 14 min. […]"}, "[2]": {"tested_on": "T1, minimal substrate PapA (msPapA)", "T1 sequence": "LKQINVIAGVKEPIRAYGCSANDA"}, "[3]": {"tested_on": "T2, Leader-AAAASACDAADA", "T2 sequence": "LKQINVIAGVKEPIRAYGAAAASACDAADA"}, "[4]": {"tested_on": "T3, Leader-^DDSAN^DCA", "T3 sequence": "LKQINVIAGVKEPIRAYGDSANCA"}, "[5]": {"tested_on": "T4, leader-^DCSANDA", "T4 sequence": "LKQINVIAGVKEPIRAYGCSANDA"}, "[6]": {"tested_on": "T5, Leader-AAACSANDACSANDA", "T5 sequence": "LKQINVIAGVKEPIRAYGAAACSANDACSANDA"}, "[7]": {"tested_on": "T6, Leader-CSAAAANDA", "T6 sequence": "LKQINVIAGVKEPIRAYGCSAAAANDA"}, "[8]": {"tested_on": "T7, Leader-CSNDAAA", "T7 sequence": "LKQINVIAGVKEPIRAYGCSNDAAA"}, "[9]": {"tested_on": "T8, leader-^DCSAN^DDA", "T8 sequence": "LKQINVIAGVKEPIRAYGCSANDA"}, "[10]": {"tested_on": "T9, Leader-CSAAANDA", "T9 sequence": "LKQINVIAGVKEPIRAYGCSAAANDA"}, "[11]": {"tested_on": "T10, Leader-DSANCA", "T10 sequence": "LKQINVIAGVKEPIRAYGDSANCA"}, "[12]": {"tested_on": "T11, Leader-AAACSAADAADA", "T11 sequence": "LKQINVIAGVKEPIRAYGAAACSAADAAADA"}, "[13]": {"tested_on": "T12, Leader-CDSNNAANA", "T12 sequence": "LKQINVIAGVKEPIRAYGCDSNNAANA"}, "[14]": {"tested_on": "T13, Leader-AAACSACDAADA", "T13 sequence": "T2 sequence with A22C"}, "[15]": {"tested_on": "T14, Leader-CSDNNAAA", "T14 sequence": "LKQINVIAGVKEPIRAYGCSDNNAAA"}, "[16]": {"tested_on": "T15, Leader-^DDSANCA", "T15 sequence": "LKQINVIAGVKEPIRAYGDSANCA"}, "[17]": {"tested_on": "T16, leader-CSAN^DDA", "T16 sequence": "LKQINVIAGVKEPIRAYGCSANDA"}, "[18]": {"tested_on": "T17, Leader-CSAANDA", "T17 sequence": "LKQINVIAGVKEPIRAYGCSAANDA"}, "[19]": {"tested_on": "T18, Leader-AAACSANDA", "T18 sequence": "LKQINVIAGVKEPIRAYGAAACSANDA"}, "[20]": {"tested_on": "T19, Y17W msPapA", "T19 sequence": "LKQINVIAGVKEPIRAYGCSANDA"}, "[21]": {"tested_on": "T20, Leader-DSAN^DCA", "T20 sequence": "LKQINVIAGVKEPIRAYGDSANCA"}}, "note": "Substitutions are numbered along the chain they refer to. Square brackets hold non-standard residues; d marks the D form. Ends that are not written are not given here.", "data": [{"substance": "LKQINVIAGVKEPIRAYGCDSNNAANA [CX0D]", "values": [{"measurement": "extent of conversion to crosslinked peptide by PapB (in words)", "setting": "[1]", "value": "did not fully react"}]}, {"substance": "LKQINVIAGVKEPIRAYGCSAAAANDA [CX6D]", "values": [{"measurement": "extent of conversion to crosslinked peptide by PapB (in words)", "setting": "[1]", "value": "did not fully react"}]}, {"substance": "LKQINVIAGVKEPIRAYGCSANDA [msPapA, reference compound]", "values": [{"measurement": "kinetics with dT relative to biological reducing system", "setting": "[1]; 430 nM PapB, 191 μM peptide", "value": "roughly 3 fold"}, {"measurement": "substrate conversion", "setting": "[1]; biological reducing system (FldA/FPR/NADPH)", "value": 100, "unit": "%"}, {"measurement": "substrate conversion", "setting": "[1]; chemical reducing system (dT)", "value": 100, "unit": "%"}, {"measurement": "turnover number (approximation of kcat for PapB)", "setting": "[1]; dithionite (dT) as reductant, 430 nM PapB, 191 μM peptide, linear portion of curve, FIG. 5 names Y17W msPapA", "value": "7.4 ± 0.1", "unit": "s⁻¹"}, {"measurement": "extent of conversion to crosslinked peptide by PapB (in words)", "setting": "[1]", "value": "complete conversion"}]}, {"substance": "LKQINVIAGVKEPIRAYGCSAN^DDA [leader-CSAN^DDA]", "values": [{"measurement": "extent of conversion to crosslinked peptide by PapB (in words)", "setting": "[1]", "value": "conversion is not complete"}]}, {"substance": "LKQINVIAGVKEPIRAYGENLYFQ^DFCF^DWKTET [octreotide analog]", "values": [{"measurement": "substrate converted to crosslinked product", "setting": "[1]", "value": "~75", "unit": "%"}]}, {"substance": "LKQINVIAGVKEPIRAYGPCSAN^DDA [leader-^DCSAN^DDA]", "values": [{"measurement": "substrate converted to crosslinked product", "setting": "[1]", "value": "≥ 15", "unit": "%"}, {"measurement": "extent of conversion to crosslinked peptide by PapB (in words)", "setting": "[1]", "value": "processed inefficiently"}]}, {"substance": "LKQINVIAGVKEPIRAYG^DCSANDA (LKQINVIAGVKEPIRAYG[dC]SANDA) [leader-^DCSANDA]", "values": [{"measurement": "extent of conversion to crosslinked peptide by PapB (in words)", "setting": "[1]", "value": "full conversion"}]}, {"substance": "PapB", "values": [{"measurement": "thioether crosslinking (loss of 2 Da, HR-MS)", "setting": "[2]", "value": "complete conversion of msPapA to a singly crosslinked peptide is routinely observed using 0.1 nmol PapB and 20 mmol msPapA in 5 min"}, {"measurement": "thioether crosslinking (loss of 2 Da, MS)", "setting": "[2]", "value": "the reactions with 1-5 intervening residues appear to go to completion"}, {"measurement": "thioether crosslinking (loss of 2 Da, MS)", "setting": "[3]", "value": "all the peptides that were examined were efficiently crosslinked by the enzyme"}, {"measurement": "thioether crosslinking (MS)", "setting": "[4]", "value": "we were unable to observe any crosslinked product with the transposed peptides, either with L- or D-amino acids"}, {"measurement": "thioether crosslinking (loss of 2 Da, MS)", "setting": "[5]", "value": "full conversion to the crosslinked peptide is seen, as evidenced by the loss of 2 Da"}, {"measurement": "thioether crosslinking (loss of 4 Da, MS)", "setting": "[6]", "value": "all the peptides that were examined were efficiently crosslinked by the enzyme"}, {"measurement": "thioether crosslinking (loss of 2 Da, MS)", "setting": "[7]", "value": "CX0D (FIG. 8B) and CX6D (FIG. 8C) did not fully react--suggesting that PapB does not processes these motifs efficiently"}, {"measurement": "thioether crosslinking (loss of 2 Da, MS)", "setting": "[8]", "value": "the reactions with 1-5 intervening residues appear to go to completion"}, {"measurement": "substrate converted to crosslinked product (MS)", "setting": "[9]", "value": "at least ˜15% of the substrate is converted to product"}, {"measurement": "thioether crosslinking (loss of 2 Da, MS)", "setting": "[10]", "value": "the reactions with 1-5 intervening residues appear to go to completion"}, {"measurement": "thioether crosslinking (MS)", "setting": "[11]", "value": "we were unable to observe any crosslinked product with the transposed peptides, either with L- or D-amino acids"}, {"measurement": "thioether crosslinking (loss of 2 Da, MS)", "setting": "[12]", "value": "all the peptides that were examined were efficiently crosslinked by the enzyme"}, {"measurement": "thioether crosslinking (loss of 2 Da, MS)", "setting": "[13]", "value": "CX0D (FIG. 8B) and CX6D (FIG. 8C) did not fully react--suggesting that PapB does not processes these motifs efficiently"}, {"measurement": "thioether crosslinking (loss of 4 Da, MS)", "setting": "[14]", "value": "all the peptides that were examined were efficiently crosslinked by the enzyme"}, {"measurement": "thioether crosslinking (loss of 2 Da, MS)", "setting": "[15]", "value": "the reactions with 1-5 intervening residues appear to go to completion"}, {"measurement": "thioether crosslinking (MS)", "setting": "[16]", "value": "we were unable to observe any crosslinked product with the transposed peptides, either with L- or D-amino acids"}, {"measurement": "thioether crosslinking (loss of 2 Da, MS)", "setting": "[17]", "value": "significant substrate turnover is observed as well, but the conversion is not complete"}, {"measurement": "thioether crosslinking (loss of 2 Da, MS)", "setting": "[18]", "value": "the reactions with 1-5 intervening residues appear to go to completion"}, {"measurement": "thioether crosslinking (loss of 2 Da, MS)", "setting": "[19]", "value": "all the peptides that were examined were efficiently crosslinked by the enzyme"}, {"measurement": "turnover number with dithionite (approximation of kcat)", "setting": "[20]", "value": "7.4±0.1", "unit": "s^-1 with dT"}, {"measurement": "turnover number with the biological reducing system FldA/FPR/NADPH (approximation of kcat)", "setting": "[20]", "value": "2.6=0.2 s^-1 are estimated with the biological reducing system"}, {"measurement": "thioether crosslinking (MS)", "setting": "[21]", "value": "we were unable to observe any crosslinked product with the transposed peptides, either with L- or D-amino acids"}]}]}
